From patent US4829052A, “Serine protease inhibitors” (Monsanto Company, priority 1987, dated 1989)

Tests used:
Assay type in all cases: biochemical
bovine chymotrypsin = bovine chymotrypsin (Bos taurus, UniProt P00766); experiment: Chymotrypsin assay (spectrophotometric, p-nitroanilide substrate); details: inhibitor/protease ratio between about 10/1 and 50/1
Protocol: (§1) The inhibitory activity of the polypeptides of the present invention can be easily assayed using in vitro assays. In these types of spectrophotometric assays the activity of the serine protease is measured toward an appropriate p-nitroanilide substrate in the presence and absence of the peptide inhibitor. The enzyme catalyzed hydrolysis of the peptide p-nitroanilide substrate produces p-nitroanaline which results in an increase in absorbance which is monitored in the range of 405 to 410 nm. The rate of increase in absorbance is a measure of the enzymatic activity and the decrease in this rate relative to a suitable control is used to ascertain inhibition. The general assay procedure and details of the particular assays employed in the examples are provided in the Appendix following the examples. It is also possible to test the polypeptides in a functionally oriented assay that emulates in vivo conditions. Such an inhibition assay for elastase is also described in the Appendix.
(§2) Generalized Protocol Spectrophotometric Assays:
(§3) (1) Pipette 100 μl of enzyme solution into a disposable polystyrene cuvette (1 cm optical path length).
(§4) (2) Add (1900-X) μl of bufferto the cuvette, where X is the volume of test solution in microliters that is added in the next step.
(§5) Add X μl of test solution to the cuvette, where X ranges from 0 μl for the control to a maximum of about 500 μl. Incubate the solution for a period of 1 to 5 minutes at ambient temperature.
(§6) (4) Add 100 μl of substrate solution to the cuvette. Mix the contents by covering the cuvette with a piece of paraffin film and repeatedly inverting for a period of 5 to 15 seconds.
(§7) (5) Record the change in absorbance for about 5 minutes at either 405 or 410 nm, depending on the assay, with a spectrophotometer equipped with a suitable recording device.
(§8) The percent inhibition is calculated from the formula [formula] where (ΔA/min) is the initial rate of absorbance change.
(§9) (7) For more accurate quantitative determinations temperature control of the cuvette holders and the reagent solutions can be instituted.
(§10) (8) The test solution can be crude oxidized peptide prepared as described above, fractions from a chromatographic separation or purified polypeptides.
(A) Buffer solution - triethanolamine buffer- See trypsin assay.
(B) Substrate Solution - Dissolve 25 mg of 3-carbomethoxypropionyl-L-arginyl-L-prolyl-L-tyrosine p-nitroanilide (Product No. S-2586, KabiVitrum AB, Stockholm, Sweden) in 23.6 ml of water
(C) Enzyme solution - Dissolve 1 mg of bovine chymotrypsin in 4 ml of 0.001N HCl. Prepare the final dilution by combining 0.1 ml of the stock chymotrypsin solution and 10 ml of 0.001N HCl. Store on ice or at 4° C.
Procedure: Use the above solutions in the general protocol
(2) See note 1 of the cathepsin G assay.
(3) 0.1M Tris-HCl, pH 7.8, 20 mM CaCl2, 0.05% triton X-100 can be substituted for the triethanolamine buffer.

Human Sputum Cathepsin G = molecular target: T1, Human Sputum Cathepsin G (Homo sapiens, UniProt P08311); experiment: Cathepsin G assay (spectrophotometric, p-nitroanilide substrate); details: inhibitor/protease ratio between about 10/1 and 50/1
T1 construct: Human Sputum Cathepsin G (Product No. SG-45, EPC, Inc., Pacific, Mo.); purchased EPC, Inc., Pacific, Mo; SG-45; host or cells: human sputum
T1 sequence (P08311 21-255): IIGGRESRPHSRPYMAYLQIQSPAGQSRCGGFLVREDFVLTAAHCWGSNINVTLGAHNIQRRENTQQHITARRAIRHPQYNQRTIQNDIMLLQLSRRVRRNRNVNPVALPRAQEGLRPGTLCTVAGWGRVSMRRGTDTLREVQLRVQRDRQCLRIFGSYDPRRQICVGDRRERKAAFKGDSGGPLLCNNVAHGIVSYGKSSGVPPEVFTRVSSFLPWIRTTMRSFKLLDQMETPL
Protocol: as §1, §2, §3, §4, §5, §6, §7, §8, §9, §10
(A) Buffer Solution - Tris-NaCl buffer consisting of 0.1M Tris-HCl, pH 8.0 containing 0.5M NaCl and 0.03% sodium azide.
(B) Substrate solution - Dissolve 50 mg of N-succinyl-L-alanyl-L-alanyl-L-prolyl-L-phenylalanine p-nitroanilide in 1 ml of 1-methyl-2-pyrrolidinone and dilute to 50 ml with Tris-NaCl buffer.
(C) Enzyme Solution - Human Sputum Cathepsin G (Product No. SG-45, EPC, Inc., Pacific, Mo.). Dissolve 1 mg of protein per 1 ml of Tris-NaCl buffer. Store on ice or at 4° C.
(D) Test Solutions - See the general protocol, number 8.
Procedure: Use the above solution in the general protocol described above. […]

purified HE = molecular target: T2, purified HE (Homo sapiens, UniProt P08246); experiment: 3H-Elastin assay with purified HE; details: FIG. 4
T2 sequence (P08246 30-267): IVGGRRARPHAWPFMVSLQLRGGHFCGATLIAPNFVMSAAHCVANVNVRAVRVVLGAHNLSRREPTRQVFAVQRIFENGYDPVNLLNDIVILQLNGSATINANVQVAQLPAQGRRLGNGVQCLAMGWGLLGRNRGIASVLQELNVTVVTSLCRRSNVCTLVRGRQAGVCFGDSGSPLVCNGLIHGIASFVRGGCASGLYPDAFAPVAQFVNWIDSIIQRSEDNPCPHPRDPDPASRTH
Protocol: The inhibition of elastolysis by peptide 8 was investigated using the ^3 H-elastin assay and purified HE.
Another, yet less sensitive, assay employs radiolabelled elastin as the solid substrate in order to imitate degradation of connective tissue.
Radiolabeling of bovine neck ligament elastin is carried out with tritiated sodium borohydride as described by Stone, et al. (Anal. Biochem., 1977, 80:572-577). Elastin coated microtiter plates are prepared essentially as described above for the fibronectin plates. The assay is run similarly except that the supernatant is added to a scintillation cocktail for counting. The linearity of the responses to purified HE is also tested.

RVCPVILMKCKKDSDCLAECVCLEHGYCG (RVCPVILMKCKKDSDCLAECVCLEHGYCG) [Peptide 8]
Inhibitory Activity Chymotrypsin (bovine chymotrypsin): - (Represents less than 10% inhibition)
Inhibitory Activity Cathepsin G (Human Sputum Cathepsin G): - (Represents less than 10% inhibition)
inhibition of elastolysis (purified HE): equally effecive for these two connective tissue substrates
